This is an account of results in article PMC3911951, “Crystal Structure of Arginine Methyltransferase 6 from Trypanosoma brucei” (PLoS ONE, 2014).

A word on the stoichiometry N: it is a count of units in the complex or per binding partner. By Kd is commonly meant the constant that tells how readily two partners part at equilibrium. Read a high Kd as weaker binding.

Assay [1] addresses Trypanosoma brucei arginine methyltransferase 6 (TbPRMT6), SAH-bound (Trypanosoma brucei). Nature of the assay: ITC; AcH4-21 peptide (3 mM) injected into TbPRMT6 (100 uM) bound to SAH; MicroCal iTC200, 25 °C; 30 mM Tris pH 8.0, 100 mM NaCl, 1 mM EDTA; one-binding-site model. A general note: Isothermal titration calorimetry measures the heat released or taken up as one component is titrated into another.

For assay [2], the target named is Trypanosoma brucei arginine methyltransferase 6 (TbPRMT6) (Trypanosoma brucei). Nature of the assay: SAXS; FL-TbPRMT6 at 1.0, 3.0 and 5.0 mg/ml in 30 mM Tris pH 8.0, 200 mM NaCl, 1 mM EDTA; molecular mass by SAXSMOW.
Assay [3] has the same target. Description: ITC; 3 mM AcH4-21 peptide injected into 100 µM TbPRMT6 with SAH bound; 25°C; 30 mM Tris pH 8.0, 100 mM NaCl, 1 mM EDTA; one-binding-site model.

The substance “AcH4-21, peptide corresponding to the first 21 residues of bovine histone H4” came in with a stoichiometry N in assay [1] of 1.79. “Trypanosoma brucei arginine methyltransferase 6 (TbPRMT6) (enzyme)” registered a stoichiometry N in assay [2] of 2.

Take “peptide corresponding to the first 21 residues of bovine histone H4 (AcH4-21)”: the Kd in assay [3] came to 45 µM.
